B1: Peripheral plasma membrane protein CASK, residues 488 to 569; numbered along this chain, O14936 (parent)
chain: VRLVQFQKNTDEPMGITLKMNELNHCIVARIMHGGMIHRQGTLHVGDEIREINGISVANQTVEQLQKMLREMRGSITFKIVP

± gives the uncertainty stated by the source.

In the data set the parent is B1. Briefly: abundance fitness (aPCA) (normalised: wild type 0, dead -1); higher = more abundant; growth selection in yeast, the domain comes from the species named. The settings on record: Homo sapiens.
Consider VRLVAFQKNTDEPMGITLKMNELNHCIVARIMHGGMIHRQGTLHVGDEIREINGISVANQTVEQLQKMLREMRGSITFKIVP, for which the abundance fitness turned out to be 0.07 ± 0.023. As for VRLCQFQKNTDEPMGITLKMNELNHCIVARIMHGGMIHRQGTLHVGDEIREINGISVANQTVEQLQKMLREMRGSITFKIVP, the abundance fitness is -0.165 ± 0.04. For VRLRQFQKNTDEPMGITLKMNELNHCIVARIMHGGMIHRQGTLHVGDEIREINGISVANQTVEQLQKMLREMRGSITFKIVP, the abundance fitness is -0.265 ± 0.023. As for VRLKQFQKNTDEPMGITLKMNELNHCIVARIMHGGMIHRQGTLHVGDEIREINGISVANQTVEQLQKMLREMRGSITFKIVP, the figure is -0.259 ± 0.039; as for VRLHQFQKNTDEPMGITLKMNELNHCIVARIMHGGMIHRQGTLHVGDEIREINGISVANQTVEQLQKMLREMRGSITFKIVP, -0.235 ± 0.059; as for VRLWQFQKNTDEPMGITLKMNELNHCIVARIMHGGMIHRQGTLHVGDEIREINGISVANQTVEQLQKMLREMRGSITFKIVP, -0.307 ± 0.028. VRLLQFQKNTDEPMGITLKMNELNHCIVARIMHGGMIHRQGTLHVGDEIREINGISVANQTVEQLQKMLREMRGSITFKIVP: the abundance fitness is -0.024 ± 0.025. In the case of VRLQQFQKNTDEPMGITLKMNELNHCIVARIMHGGMIHRQGTLHVGDEIREINGISVANQTVEQLQKMLREMRGSITFKIVP, the abundance fitness was -0.565 ± 0.045.

In the case of VRLGQFQKNTDEPMGITLKMNELNHCIVARIMHGGMIHRQGTLHVGDEIREINGISVANQTVEQLQKMLREMRGSITFKIVP, the abundance fitness was -0.677 ± 0.028. Next, VRLAQFQKNTDEPMGITLKMNELNHCIVARIMHGGMIHRQGTLHVGDEIREINGISVANQTVEQLQKMLREMRGSITFKIVP: -0.199 ± 0.027; VRLTQFQKNTDEPMGITLKMNELNHCIVARIMHGGMIHRQGTLHVGDEIREINGISVANQTVEQLQKMLREMRGSITFKIVP: -0.239 ± 0.037; VRLIQFQKNTDEPMGITLKMNELNHCIVARIMHGGMIHRQGTLHVGDEIREINGISVANQTVEQLQKMLREMRGSITFKIVP: -0.091 ± 0.049. On to VRLDQFQKNTDEPMGITLKMNELNHCIVARIMHGGMIHRQGTLHVGDEIREINGISVANQTVEQLQKMLREMRGSITFKIVP, for which the abundance fitness was -0.842 ± 0.1. As for VRLYQFQKNTDEPMGITLKMNELNHCIVARIMHGGMIHRQGTLHVGDEIREINGISVANQTVEQLQKMLREMRGSITFKIVP, the figure is -0.19 ± 0.055. Next, VRLSQFQKNTDEPMGITLKMNELNHCIVARIMHGGMIHRQGTLHVGDEIREINGISVANQTVEQLQKMLREMRGSITFKIVP: -0.392 ± 0.033; VRLMQFQKNTDEPMGITLKMNELNHCIVARIMHGGMIHRQGTLHVGDEIREINGISVANQTVEQLQKMLREMRGSITFKIVP: -0.138 ± 0.037. As for VRLFQFQKNTDEPMGITLKMNELNHCIVARIMHGGMIHRQGTLHVGDEIREINGISVANQTVEQLQKMLREMRGSITFKIVP, the figure is -0.094 ± 0.05. Regarding VRCVQFQKNTDEPMGITLKMNELNHCIVARIMHGGMIHRQGTLHVGDEIREINGISVANQTVEQLQKMLREMRGSITFKIVP, the abundance fitness is -0.198 ± 0.038. For VRVVQFQKNTDEPMGITLKMNELNHCIVARIMHGGMIHRQGTLHVGDEIREINGISVANQTVEQLQKMLREMRGSITFKIVP, the abundance fitness was determined as 0.002 ± 0.026.

With VREVQFQKNTDEPMGITLKMNELNHCIVARIMHGGMIHRQGTLHVGDEIREINGISVANQTVEQLQKMLREMRGSITFKIVP, the abundance fitness came to 0.094 ± 0.029. Next, VRKVQFQKNTDEPMGITLKMNELNHCIVARIMHGGMIHRQGTLHVGDEIREINGISVANQTVEQLQKMLREMRGSITFKIVP: -0.026 ± 0.034. As for VRYVQFQKNTDEPMGITLKMNELNHCIVARIMHGGMIHRQGTLHVGDEIREINGISVANQTVEQLQKMLREMRGSITFKIVP, the abundance fitness is -0.015 ± 0.043. Take VRPVQFQKNTDEPMGITLKMNELNHCIVARIMHGGMIHRQGTLHVGDEIREINGISVANQTVEQLQKMLREMRGSITFKIVP: the abundance fitness was -0.322 ± 0.044. As for VRIVQFQKNTDEPMGITLKMNELNHCIVARIMHGGMIHRQGTLHVGDEIREINGISVANQTVEQLQKMLREMRGSITFKIVP, the figure is 0.085 ± 0.064; as for VRWVQFQKNTDEPMGITLKMNELNHCIVARIMHGGMIHRQGTLHVGDEIREINGISVANQTVEQLQKMLREMRGSITFKIVP, -0.113 ± 0.026. For the variant VRDVQFQKNTDEPMGITLKMNELNHCIVARIMHGGMIHRQGTLHVGDEIREINGISVANQTVEQLQKMLREMRGSITFKIVP, the abundance fitness is -0.141 ± 0.041. Next, VRQVQFQKNTDEPMGITLKMNELNHCIVARIMHGGMIHRQGTLHVGDEIREINGISVANQTVEQLQKMLREMRGSITFKIVP: 0.018 ± 0.03; VRFVQFQKNTDEPMGITLKMNELNHCIVARIMHGGMIHRQGTLHVGDEIREINGISVANQTVEQLQKMLREMRGSITFKIVP: 0.007 ± 0.05; VRSVQFQKNTDEPMGITLKMNELNHCIVARIMHGGMIHRQGTLHVGDEIREINGISVANQTVEQLQKMLREMRGSITFKIVP: -0.026 ± 0.028.

Regarding VRAVQFQKNTDEPMGITLKMNELNHCIVARIMHGGMIHRQGTLHVGDEIREINGISVANQTVEQLQKMLREMRGSITFKIVP, the abundance fitness is -0.14 ± 0.029. As to VRNVQFQKNTDEPMGITLKMNELNHCIVARIMHGGMIHRQGTLHVGDEIREINGISVANQTVEQLQKMLREMRGSITFKIVP, the abundance fitness is -0.13 ± 0.053.

For the variant VRTVQFQKNTDEPMGITLKMNELNHCIVARIMHGGMIHRQGTLHVGDEIREINGISVANQTVEQLQKMLREMRGSITFKIVP, the abundance fitness amounted to 0.033 ± 0.034.

With VRGVQFQKNTDEPMGITLKMNELNHCIVARIMHGGMIHRQGTLHVGDEIREINGISVANQTVEQLQKMLREMRGSITFKIVP, the abundance fitness is -0.307 ± 0.023. As for VVLVQFQKNTDEPMGITLKMNELNHCIVARIMHGGMIHRQGTLHVGDEIREINGISVANQTVEQLQKMLREMRGSITFKIVP, the figure is -0.089 ± 0.029; as for VMLVQFQKNTDEPMGITLKMNELNHCIVARIMHGGMIHRQGTLHVGDEIREINGISVANQTVEQLQKMLREMRGSITFKIVP, 0.019 ± 0.033. As for VCLVQFQKNTDEPMGITLKMNELNHCIVARIMHGGMIHRQGTLHVGDEIREINGISVANQTVEQLQKMLREMRGSITFKIVP, the figure is -0.09 ± 0.049; as for VGLVQFQKNTDEPMGITLKMNELNHCIVARIMHGGMIHRQGTLHVGDEIREINGISVANQTVEQLQKMLREMRGSITFKIVP, -0.225 ± 0.024; as for VYLVQFQKNTDEPMGITLKMNELNHCIVARIMHGGMIHRQGTLHVGDEIREINGISVANQTVEQLQKMLREMRGSITFKIVP, -0.002 ± 0.065. On to VNLVQFQKNTDEPMGITLKMNELNHCIVARIMHGGMIHRQGTLHVGDEIREINGISVANQTVEQLQKMLREMRGSITFKIVP, for which the abundance fitness is 0.091 ± 0.057. In the case of VHLVQFQKNTDEPMGITLKMNELNHCIVARIMHGGMIHRQGTLHVGDEIREINGISVANQTVEQLQKMLREMRGSITFKIVP, the abundance fitness is -0.05 ± 0.061.

With VKLVQFQKNTDEPMGITLKMNELNHCIVARIMHGGMIHRQGTLHVGDEIREINGISVANQTVEQLQKMLREMRGSITFKIVP, the abundance fitness is -0.055 ± 0.036. With VALVQFQKNTDEPMGITLKMNELNHCIVARIMHGGMIHRQGTLHVGDEIREINGISVANQTVEQLQKMLREMRGSITFKIVP, the abundance fitness is -0.149 ± 0.03. Next, VTLVQFQKNTDEPMGITLKMNELNHCIVARIMHGGMIHRQGTLHVGDEIREINGISVANQTVEQLQKMLREMRGSITFKIVP: -0.038 ± 0.038; VELVQFQKNTDEPMGITLKMNELNHCIVARIMHGGMIHRQGTLHVGDEIREINGISVANQTVEQLQKMLREMRGSITFKIVP: -0.028 ± 0.034; VDLVQFQKNTDEPMGITLKMNELNHCIVARIMHGGMIHRQGTLHVGDEIREINGISVANQTVEQLQKMLREMRGSITFKIVP: -0.149 ± 0.054.

Take VLLVQFQKNTDEPMGITLKMNELNHCIVARIMHGGMIHRQGTLHVGDEIREINGISVANQTVEQLQKMLREMRGSITFKIVP: the abundance fitness was -0.159 ± 0.036. Consider VILVQFQKNTDEPMGITLKMNELNHCIVARIMHGGMIHRQGTLHVGDEIREINGISVANQTVEQLQKMLREMRGSITFKIVP, for which the abundance fitness was -0.029 ± 0.06. Turning to VSLVQFQKNTDEPMGITLKMNELNHCIVARIMHGGMIHRQGTLHVGDEIREINGISVANQTVEQLQKMLREMRGSITFKIVP, the abundance fitness is -0.084 ± 0.036. As for FRLVQFQKNTDEPMGITLKMNELNHCIVARIMHGGMIHRQGTLHVGDEIREINGISVANQTVEQLQKMLREMRGSITFKIVP, the figure is -0.026 ± 0.049; as for NRLVQFQKNTDEPMGITLKMNELNHCIVARIMHGGMIHRQGTLHVGDEIREINGISVANQTVEQLQKMLREMRGSITFKIVP, 0.037 ± 0.048. For LRLVQFQKNTDEPMGITLKMNELNHCIVARIMHGGMIHRQGTLHVGDEIREINGISVANQTVEQLQKMLREMRGSITFKIVP, the abundance fitness is -0.098 ± 0.035.

Take CRLVQFQKNTDEPMGITLKMNELNHCIVARIMHGGMIHRQGTLHVGDEIREINGISVANQTVEQLQKMLREMRGSITFKIVP: the abundance fitness is -0.056 ± 0.047. As for YRLVQFQKNTDEPMGITLKMNELNHCIVARIMHGGMIHRQGTLHVGDEIREINGISVANQTVEQLQKMLREMRGSITFKIVP, the figure is 0.017 ± 0.059. Next, PRLVQFQKNTDEPMGITLKMNELNHCIVARIMHGGMIHRQGTLHVGDEIREINGISVANQTVEQLQKMLREMRGSITFKIVP: -0.376 ± 0.11; HRLVQFQKNTDEPMGITLKMNELNHCIVARIMHGGMIHRQGTLHVGDEIREINGISVANQTVEQLQKMLREMRGSITFKIVP: -0.207 ± 0.069. Consider IRLVQFQKNTDEPMGITLKMNELNHCIVARIMHGGMIHRQGTLHVGDEIREINGISVANQTVEQLQKMLREMRGSITFKIVP, for which the abundance fitness came to 0.085 ± 0.042. As for ERLVQFQKNTDEPMGITLKMNELNHCIVARIMHGGMIHRQGTLHVGDEIREINGISVANQTVEQLQKMLREMRGSITFKIVP, the figure is 0.03 ± 0.043; as for GRLVQFQKNTDEPMGITLKMNELNHCIVARIMHGGMIHRQGTLHVGDEIREINGISVANQTVEQLQKMLREMRGSITFKIVP, -0.037 ± 0.028; as for RRLVQFQKNTDEPMGITLKMNELNHCIVARIMHGGMIHRQGTLHVGDEIREINGISVANQTVEQLQKMLREMRGSITFKIVP, -0.177 ± 0.043. For the variant SRLVQFQKNTDEPMGITLKMNELNHCIVARIMHGGMIHRQGTLHVGDEIREINGISVANQTVEQLQKMLREMRGSITFKIVP, the abundance fitness was -0.095 ± 0.038. As for ARLVQFQKNTDEPMGITLKMNELNHCIVARIMHGGMIHRQGTLHVGDEIREINGISVANQTVEQLQKMLREMRGSITFKIVP, the figure is -0.119 ± 0.033; as for MRLVQFQKNTDEPMGITLKMNELNHCIVARIMHGGMIHRQGTLHVGDEIREINGISVANQTVEQLQKMLREMRGSITFKIVP, 0.099 ± 0.045; as for WRLVQFQKNTDEPMGITLKMNELNHCIVARIMHGGMIHRQGTLHVGDEIREINGISVANQTVEQLQKMLREMRGSITFKIVP, -0.122 ± 0.047. As to TRLVQFQKNTDEPMGITLKMNELNHCIVARIMHGGMIHRQGTLHVGDEIREINGISVANQTVEQLQKMLREMRGSITFKIVP, the abundance fitness stood at 0.015 ± 0.043. Next, DRLVQFQKNTDEPMGITLKMNELNHCIVARIMHGGMIHRQGTLHVGDEIREINGISVANQTVEQLQKMLREMRGSITFKIVP: 0.055 ± 0.039; KRLVQFQKNTDEPMGITLKMNELNHCIVARIMHGGMIHRQGTLHVGDEIREINGISVANQTVEQLQKMLREMRGSITFKIVP: -0.046 ± 0.063. On to QRLVQFQKNTDEPMGITLKMNELNHCIVARIMHGGMIHRQGTLHVGDEIREINGISVANQTVEQLQKMLREMRGSITFKIVP, for which the abundance fitness was -0.189 ± 0.09.

The record behind these values is the Human Domainome abundance scans (Beltran et al. 2025).
